We go through one molecule from US20140128320A1 (TRUSTEES OF COLUMBIA UNIVERSITY IN THE CITY OF NEW YORK, published 2014).

The target in this assay is T1, insulin receptor (InsR) expressed in ROS17/2.8 osteoblast cells (rat (by the cell line;  for …, UniProt P15127 27-1383, limits assumed).
T1 construct: The species is inferred from the cell line only; also called insulin receptor in ROS cells
The experiment in a line: GST pull-down (substrate trapping) from ROS17/2.8 cell lysate, western blot. (In general: In western blotting, separated proteins are transferred to a membrane and probed.)

T1 sequence (P15127 27-1383 limits assumed): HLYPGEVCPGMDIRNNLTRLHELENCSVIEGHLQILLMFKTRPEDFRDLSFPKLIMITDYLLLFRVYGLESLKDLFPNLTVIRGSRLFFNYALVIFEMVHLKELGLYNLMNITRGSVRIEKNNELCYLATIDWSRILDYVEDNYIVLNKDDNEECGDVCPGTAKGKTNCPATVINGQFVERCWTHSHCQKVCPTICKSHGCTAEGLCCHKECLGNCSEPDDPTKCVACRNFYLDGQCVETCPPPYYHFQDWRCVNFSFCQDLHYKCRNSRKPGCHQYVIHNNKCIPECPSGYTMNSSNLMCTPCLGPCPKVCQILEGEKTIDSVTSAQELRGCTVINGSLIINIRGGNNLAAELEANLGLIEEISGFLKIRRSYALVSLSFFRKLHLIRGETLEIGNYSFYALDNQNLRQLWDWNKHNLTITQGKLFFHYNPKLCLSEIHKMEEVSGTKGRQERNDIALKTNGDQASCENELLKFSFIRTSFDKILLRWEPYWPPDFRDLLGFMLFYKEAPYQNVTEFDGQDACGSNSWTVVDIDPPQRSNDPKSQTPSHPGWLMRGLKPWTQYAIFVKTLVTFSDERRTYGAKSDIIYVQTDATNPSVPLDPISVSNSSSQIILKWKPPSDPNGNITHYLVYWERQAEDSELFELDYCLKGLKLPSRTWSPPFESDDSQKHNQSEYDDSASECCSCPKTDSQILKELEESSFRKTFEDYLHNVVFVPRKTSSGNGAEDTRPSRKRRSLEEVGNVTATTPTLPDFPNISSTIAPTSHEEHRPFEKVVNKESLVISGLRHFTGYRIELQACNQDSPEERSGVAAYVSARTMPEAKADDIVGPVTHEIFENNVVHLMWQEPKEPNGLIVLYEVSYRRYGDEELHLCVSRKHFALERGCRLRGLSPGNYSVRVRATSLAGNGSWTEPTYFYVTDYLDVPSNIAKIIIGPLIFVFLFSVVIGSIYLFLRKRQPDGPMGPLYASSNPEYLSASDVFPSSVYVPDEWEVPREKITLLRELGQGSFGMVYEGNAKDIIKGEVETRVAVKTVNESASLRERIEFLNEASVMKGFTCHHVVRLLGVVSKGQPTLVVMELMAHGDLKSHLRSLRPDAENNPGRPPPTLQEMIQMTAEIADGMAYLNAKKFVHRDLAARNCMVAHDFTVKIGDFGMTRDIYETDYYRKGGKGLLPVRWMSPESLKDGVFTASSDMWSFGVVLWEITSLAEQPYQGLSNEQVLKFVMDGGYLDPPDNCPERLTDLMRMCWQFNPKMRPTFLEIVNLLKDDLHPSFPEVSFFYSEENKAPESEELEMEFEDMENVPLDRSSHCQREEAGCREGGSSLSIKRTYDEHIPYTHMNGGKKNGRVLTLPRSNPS
Description: Recombinant proteins bound to Sepharose beads for 1 hour at 4° C. (insulin receptor trapping) or for 2 h at 4° C. […] Precipitates were collected, washed four times with lysis buffer and resolved on SDS-PAGE, followed by western blotting. Insulin receptor (InsR) was detected using rabbit anti-insulin receptor antibodies (Santa-Cruz, C-19) and GST was detected by mouse anti-GST antibodies (Santa-Cruz).

B1: GST-PTP^WT (a fusion of GST with the phosphatase domain I of OST-PTP, rat a.a. 1116-1412) (enzyme)
chain: KELMPYNLWRTHRPIPIHSFRQSYEAKSAHAHQTFFQEFEELKEVGKDQPRLEAEHPDNIIKNRYPHVLPYDHSRVRLTQLPGEPHSDYINANFIPGYSHTQEIIATQGPLKKTLEDFWRLVWEQQVHVIIMLTVGMENGRVLCEHYWPANSTPVTHGHITIHLLAEEPEDEWTRREFQLQHGTEQKQRRVKQLQFTTWPDHSVPEAPSSLLAFVELVQEQVQATQGKGPILVHCSAGVGRTGTFVALLRLLRQLEEEKVADVFNTVYILRLHRPLMIQTLSQYIFLHSCLLNKILE
notes: also called WT OST-PTP; not shown: Glutathione S-transferase (GST) encoded by the vector pGEX 4T3 (Amersham)
For B1, the binding result was “no binding”.
